B1: Recombinant LIMP2 (R&D Systems Cat. No. 1966-LM-050) (receptor, UniProt Q14108 27-432, looked up)
chain: RVFQKAVDQSIEKKIVLRNGTEAFDSWEKPPLPVYTQFYFFNVTNPEEILRGETPRVEEVGPYTYRELRNKANIQFGDNGTTISAVSNKAYVFERDQSVGDPKIDLIRTLNIPVLTVIEWSQVHFLREIIEAMLKAYQQKLFVTHTVDELLWGYKDEILSLIHVFRPDISPYFGLFYEKNGTNDGDYVFLTGEDSYLNFTKIVEWNGKTSLDWWITDKCNMINGTDGDSFHPLITKDEVLYVFPSDFCRSVYITFSDYESVQGLPAFRYKVPAEILANTSDNAGFCIPEGNCLGSGVLNVSICKNGAPIIMSFPHFYQADERFVSAIEGMHPNQEDHETFVDINPLTGIILKAAKRFQINIYVKKLDDFVETGDIRTMVFPVMYLNESVHIDKETASRLKSMINTT
modifications: biotin-labeled (EZ-Link Sulfo-NHS-LC-Biotin)
notes: Bought protein; also called Lysosomal integral membrane protein 2
B2: Recombinant His-tag PGRN protein (recombinant human progranulin) (ligand)
chain: TRCPDGQFCPVACCLDPGGASYSCCRPLLDKWPTTLSRHLGGPCQVDAHCSAGHSCIFTVSGTSSCCPFPEAVACGDGHHCCPRGFHCSADGRSCFQRSGNNSVGAIQCPDSQFECPDFSTCCVMVDGSWGCCPMPQASCCEDRVHCCPHGAFCDLVHTRCITPTGTHPLAKKLPAQRTNRAVALSSSVMCPDARSRCPDGSTCCELPSGKYGCCPMPNATCCSDHLHCCPQDTVCDLIQSKCLSKENATTDLLTKLPAHTVGDVKCDMEVSCPDGYTCCRLQSGAWGCCPFTQAVCCEDHIHCCPAGFTCDTQKGTCEQGPHQVPWMEKAPAHLSLPDPQALKRDVPCDNVSSCPSSDTCCQLTSGEWGCCPIPEAVCCSDHQHCCPQGYTCVAEGQCQRGSEIVAGLEKMPARRASLSHPRDIGCDQHTSCPVGQTCCPSLGGSWACCQLPHAVCCEDRQHCCPAGYTCNVKARSCEKEVVSAQPATFLARSPHVGVKDVECGEGHFCHDNQTCCRDNRQGWACCPYRQGVCCADRRHCCPAGFRCAARGTKCLRREAPRWDAPLRDPALRQLL
notes: Coated on the plate in the solid phase assay; analyte (200 nM) in SPR; also called rPGRN; His-tagged PGRN; not shown: His tag
B3: Recombinant GBA (R&D Systems Cat. No. 7410-GH-010) (enzyme, UniProt P04062 40-536, looked up)
chain: ARPCIPKSFGYSSVVCVCNATYCDSFDPPTFPALGTFSRYESTRSGRRMELSMGPIQANHTGTGLLLTLQPEQKFQKVKGFGGAMTDAAALNILALSPPAQNLLLKSYFSEEGIGYNIIRVPMASCDFSIRTYTYADTPDDFQLHNFSLPEEDTKLKIPLIHRALQLAQRPVSLLASPWTSPTWLKTNGAVNGKGSLKGQPGDIYHQTWARYFVKFLDAYAEHKLQFWAVTAENEPSAGLLSGYPFQCLGFTPEHQRDFIARDLGPTLANSTHHNVRLLMLDDQRLLLPHWAKVVLTDPEAAKYVHGIAVHWYLDFLAPAKATLGETHRLFPNTMLFASEACVGSKFWEQSVRLGSWDRGMQYSHSIITNLLYHVVGWTDWNLALNPEGGPNWVRNFVDSPIIVDITKDTFYKQPMFYHLGHFSKFIPEGSQRVGLVASQKNDLDAVALMHPDGSAVVVVLNRSSKDVPLTIKDPAVGFLETISPGYSIHTYLWRRQ
modifications: biotin-labeled (EZ-Link Sulfo-NHS-LC-Biotin) in the solid phase binding assay only
notes: Bought protein; Immobilised on the COOH1 chip in SPR; also called glucocerebrosidase; beta-glucocerebrosidase
B4: mouse LIMP2 (endogenous, lung tissue) (receptor, UniProt O35114 1-478, looked up)
chain: MGRCCFYTAGTLSLLLLVTSVTLLVARVFQKAVDQTIEKNMVLQNGTKVFNSWEKPPLPVYIQFYFFNVTNPEEILQGEIPLLEEVGPYTYRELRNKANIQFGENGTTISAVTNKAYVFERNQSVGDPNVDLIRTINIPLLTVVDLAQLTLLRELIEAMLKAYQQKLFVIHTVHELLWGYKDEILSLVHIFKPDVSPNFGLFYERNGTNDGEYVFLTGEDNYLNFSKIVEWNGKTSLDWWTTDTCNMINGTDGDSFHPLISKDEVLYLFPSDLCRSVHITFSSFENVEGLPAFRYKVPAEILANTSENAGFCIPEGNCMDSGVLNISICKNGAPIIMSFPHFYQADEKFVSAIKGMHPNKEEHESFVDINPLTGIILRGAKRFQINTYVRKLDDFVETGDIRTMVFPVMYLNESVLIDKETANQLKSVINTTLVVTNIPYIIMALGVFFGLVFTWLACRGQGSMDEGTADERAPLIRT
notes: Endogenous protein in lung lysate; also called Lysosomal integral membrane protein 2
B5: mouse alpha-galactosidase A (endogenous, lung tissue) (enzyme, UniProt P51569 32-419, looked up)
chain: LDNGLARTPTMGWLHWERFMCNLDCQEEPDACISEQLFMQMAELMVSDGWRDAGYDYLCIDDCWMAPERDSKGRLQADPQRFPSGIKHLANYVHSKGLKLGIYADVGNKTCAGFPGSFGSYDIDAQTFADWGVDLLKFDGCHCDSVVSLENGYKYMALALNRTGRSIVYSCEWPLYLRPFHKPNYTDIQYYCNHWRNFDDVYDSWESIKNILSWTVVYQKEIVEVAGPGSWNDPDMLVIGNFGLSWDQQVTQMALWAIMAAPLLMSNDLRQISSQAKALLQNKDVIAINQDPLGKQGYCFRKENHIEVWERPLSNLAWAVAVRNLQEIGGPCPYTIQISSLGRGLACNPGCIITQLLPEKVHLGFYEWTLTLKTRVNPSGTVLFRLER
notes: Endogenous protein in lung lysate; also called GLA; alpha-GLA

Experiments:
[1] = target: B2; assay: solid phase binding assay: PGRN coated at the concentration on the x axis (µg/ml), biotin-labeled LIMP2 added, streptavidin-HRP, OD 450 nm
Procedure: (§1) The plate was washed with 0.1% tween/PBS five times and then blocked with 2% BSA/PBS solution. […] Wash with 0.1% tween/PBS, and coated with streptavidin-HRP (1:2000 dilution) solution for 1 hour. After washing add t h e substrate and stop the reaction with 100 μl 2M H₂SO₄. Read result at UV 450 nm in plate reader.

[2] = target: T1, Recombinant sortilin (R&D Systems Cat. No. 3154-ST-050) (UniProt Q99523 78-755); assay: SPR, SensiQ Pioneer, COOH1 chip, Sortilin immobilised, PGRN as analyte (data not shown)
T1 construct: Bought protein; Immobilised on channel 1 of the chip in SPR

[3] = target: B3; assay: solid phase binding assay: PGRN coated at the concentration on the x axis (µg/ml), biotin-labeled GBA added, streptavidin-HRP, OD 450 nm
Procedure: as §1

[4] = target: B2; assay: SPR (SensiQ Pioneer), GBA immobilised, PGRN injected, running buffer pH 7.4
Procedure: (§2) All SPR experiments were done by SensiQ Technologies Inc. (Oklahoma City, Okla.) by using SensiQ Pioneer at a controlled analysis temperature of 25° C., and samples in the instrument sample racks were maintained at 18° C. The running buffer throughout the immobilization and the assay consisted of 10 mM HEPES, 150 mM NaCl, 0.005% Tween 20.
(§3) Data was analyzed using the QDat Analysis Software (SensiQ Technologies and BioLogic Software). All data were double referenced to a reference channel (channel 2) and buffer blanks. The average signal of the buffer blanks was used to subtract injection artifacts. Referenced SPR data from the analysis channels were model fit to ascertain ka, kd, and KD for the interactions.

[5] = target: B2; assay: SPR (SensiQ Pioneer), GBA immobilised, PGRN injected, running buffer pH 6.0
Procedure: as §2, §3

[6] = target: B2; assay: SPR (SensiQ Pioneer), GBA immobilised, PGRN injected, running buffer pH 5.5
Procedure: as §2, §3

[7] = target: B2; assay: SPR (SensiQ Pioneer), GBA immobilised, PGRN injected, running buffer pH 6.5
Procedure: as §2, §3

[8] = target: T2, mouse GBA (endogenous, lung tissue) (mouse, UniProt P17439 20-515); assay: co-immunoprecipitation from lung lysate of WT and PGRN KO mice, IP: GBA, IB: LIMP2
T2 construct: Endogenous protein precipitated or detected with anti-GBA antibody; also called glucocerebrosidase
T2 sequence (looked up): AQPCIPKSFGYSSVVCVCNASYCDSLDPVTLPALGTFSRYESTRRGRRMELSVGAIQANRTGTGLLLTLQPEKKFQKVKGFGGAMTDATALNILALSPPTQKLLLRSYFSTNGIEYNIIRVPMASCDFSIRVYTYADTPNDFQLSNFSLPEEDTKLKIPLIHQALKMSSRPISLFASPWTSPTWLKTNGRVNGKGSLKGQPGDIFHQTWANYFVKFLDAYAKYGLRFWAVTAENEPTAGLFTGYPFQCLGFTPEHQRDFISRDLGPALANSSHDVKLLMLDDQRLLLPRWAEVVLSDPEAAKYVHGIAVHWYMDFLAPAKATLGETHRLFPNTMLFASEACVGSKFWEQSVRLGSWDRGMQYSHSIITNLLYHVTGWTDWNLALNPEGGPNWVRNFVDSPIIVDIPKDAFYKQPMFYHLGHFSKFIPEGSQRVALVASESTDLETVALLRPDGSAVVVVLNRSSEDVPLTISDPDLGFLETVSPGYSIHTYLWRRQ

[9] = target: T3, mouse Sortilin (endogenous, lung tissue) (mouse, UniProt Q6PHU5 74-825); assay: co-immunoprecipitation from lung lysate of WT and PGRN KO mice, IP: Sortilin, IB: GLA
T3 construct: Endogenous protein in lung lysate
T3 sequence (Q6PHU5 74-825 limits assumed): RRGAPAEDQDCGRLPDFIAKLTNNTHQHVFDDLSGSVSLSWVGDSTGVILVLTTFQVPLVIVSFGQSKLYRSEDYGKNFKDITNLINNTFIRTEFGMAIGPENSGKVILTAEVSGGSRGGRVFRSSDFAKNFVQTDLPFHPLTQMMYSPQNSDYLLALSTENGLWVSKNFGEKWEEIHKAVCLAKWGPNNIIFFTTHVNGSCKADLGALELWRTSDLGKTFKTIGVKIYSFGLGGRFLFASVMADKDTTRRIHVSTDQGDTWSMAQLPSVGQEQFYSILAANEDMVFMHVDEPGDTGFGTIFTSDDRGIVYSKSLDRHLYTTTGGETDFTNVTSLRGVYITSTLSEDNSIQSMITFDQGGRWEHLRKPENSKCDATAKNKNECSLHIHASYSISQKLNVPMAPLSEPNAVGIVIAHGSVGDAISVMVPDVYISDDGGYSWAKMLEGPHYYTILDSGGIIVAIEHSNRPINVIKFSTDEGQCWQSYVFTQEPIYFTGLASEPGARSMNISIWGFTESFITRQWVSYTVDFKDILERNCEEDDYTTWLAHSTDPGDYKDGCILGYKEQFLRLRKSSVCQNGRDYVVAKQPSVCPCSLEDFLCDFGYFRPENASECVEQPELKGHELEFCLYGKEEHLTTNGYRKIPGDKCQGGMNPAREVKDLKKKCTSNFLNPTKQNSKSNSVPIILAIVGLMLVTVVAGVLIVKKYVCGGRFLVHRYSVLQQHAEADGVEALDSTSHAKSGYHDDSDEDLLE

B1
binding result [1]: no binding (tested: 5 µg/ml)

B2
Kd [2]: 3.67 nM | EC50 (read off the curve) [3]: ~1 µg/mL

B3
Kd [4]: 0.71 nM | Kd [5]: 16.9 nM | Kd [6]: 55 nM | Kd [7]: 20.8 nM

B4
binding result [8]: binds

B5
binding result [9]: binds

From patent US20170049855A1 (NEW YORK UNIVERSITY, published 2017)
